The values that follow come from article PMC2442654 (PLoS ONE, 2008).

This series deals with the molecule itself. In words: thioflavin T fluorescence + AFM (de novo amyloid fibril formation).

B1: recombinant mouse full-length prion protein, MoPrP (23-231), unexposed (natural protein)
chain: not shown
As for B1, the binding result is “binds”.
